Reference: PMC7954794, “Protein context shapes the specificity of SH3 domain-mediated interactions in vivo” (Nature Communications, 2021)

Test system: Sla1 PPIs
Test: DHFR-PCA of Sla1 SH3-swapped, -shuffled or -deleted baits (Fig. 2E, 4B, 4D, S5A)
Assay type: cell-based, Saccharomyces cerevisiae
Source text: The stuffing of YSC84 SH3 rendered the strain sterile and was therefore not used for this study as the assays require crosses. For genes containing two SH3s (BZZ1 and BEM1), a combination of this first stuffer with a second one ([…]) coding for a highly similar linker ([…]) was used, which allowed targeting each SH3 position independently. The two N-terminal domains of SLA1, which are separated by six nucleotides, were stuffed by a single stuffer. Cells containing pCAS were selected via the G418 resistance cassette from the plasmid on YPD plates (YPD + NAT 100 μg/ml (DHFR F[1,2] selection) + G418 200 µg/mL (Bioshop Canada)). Colonies were randomly selected and grown in YPD media without G418 to allow plasmid loss. The correct insertion of the stuffer was validated by PCR and Sanger sequencing. The SH3-swapped, -shuffled, and -mutated strains were constructed following a second CRISPR–Cas9 editing step with the same procedures. The stuffer sequences were targeted by specific gRNAs (one gRNA per stuffer) and replaced by PCR amplified specific SH3 (with 40 bp homology arms) or libraries of mutated SH3 domains for Deep Mutational Scanning (DMS) with 78 bp flanking homology regions. Validation of the SH3 domain insertions was done as we previously described except for DMS libraries (see below).
The overall DHFR-PCA pipeline is based on Tarassov et al.[43] and the procedures have also been published as a visualized protocol. The screens were performed with robotically manipulated pin tools (BM5-SC1, S&P Robotics Inc.). First, the preys were cherry-picked from 96-well plates to omnitrays in a 384 format on YPD + HPH solid media. Plates were then combined into the 1536 format on YPD + HPH. The array was constituted of 575 preys previously shown to interact physically with at least one SH3-containing protein as reported in BioGRID V3.4.16 along with 40 negative controls. The prey array comprised a border of control strains of two rows and two columns corresponding to the PPI between LSM8-DHFR F[1,2] and CDC39-DHFR F[3]. This double border was used to remove border effects. Preys are present in duplicate at a randomized position in the 1536 array (except for YAL041W which is present four times per array). Baits were crossed with two prey plates, resulting in four independent bait–prey tests for each PPI. Baits were grown in liquid YPD + NAT and then transferred on solid YPD + NAT omnitrays. They were then replicated on YPD + NAT omnitrays in 1536 array format. Mating of DHFR F[1,2] baits with DHFR F[3] preys was done on YPD followed by incubation at 30 °C for 48 h. Two diploid selection steps were performed by replicating the plates on YPD + NAT + HPH and incubating them for 48 h at 30 °C. Pictures were taken at the end of the second diploid selection for quality control. All images were acquired with a EOS Rebel T5i camera (Canon). Finally, the diploid cells were replicated on omnitrays containing solid PCA selection media and incubated for 4 days as a first selection step in a spImager custom robotic platform (S&P Robotics Inc.). Cells were replicated for a second PCA selection step and incubated in the same manner. The last time point of the second PCA selection step was used for the data analysis as in previous studies using this method.
A separate DHFR-PCA screen was performed for the Sla1 SH3 shuffling experiment, with the same analysis as previously described. Three plates had no detectable level of background, which correspond to the second plate of the three Sla1 SH3 WT re-insertion controls. They were attributed the average of the background of the three first plates of the same baits. The threshold was also determined based on the distribution of the PCA scores of all PPIs and corresponds to the top 2.75% of all colonies detected in this experiment. […] Almost all true PPIs are from four replicates (96.2%). […]

B1: SLA1 WT¦WT¦WT (protein, UniProt P32790 1-1244, looked up)
Actin cytoskeleton-regulatory …: MTVFLGIYRAVYAYEPQTPEELAIQEDDLLYLLQKSDIDDWWTVKKRVIGSDSEEPVGLVPSTYIEEAPVLKKVRAIYDYEQVQNADEELTFHENDVFDVFDDKDADWLLVKSTVSNEFGFIPGNYVEPENGSTSKQEQAPAAAEAPAATPAAAPASAAVLPTNFLPPPQHNDRARMMQSKEDQAPDEDEEGPPPAMPARPTATTETTDATAAAVRSRTRLSYSDNDNDDEEDDYYYNSNSNNVGNHEYNTEYHSWNVTEIEGRKKKKAKLSIGNNKINFIPQKGTPHEWSIDKLVSYDNEKKHMFLEFVDPYRSLELHTGNTTTCEEIMNIIGEYKGASRDPGLREVEMASKSKKRGIVQYDFMAESQDELTIKSGDKVYILDDKKSKDWWMCQLVDSGKSGLVPAQFIEPVRDKKHTESTASGIIKSIKKNFTKSPSRSRSRSRSKSNANASWKDDELQNDVVGSAAGKRSRKSSLSSHKKNSSATKDFPNPKKSRLWVDRSGTFKVDAEFIGCAKGKIHLHKANGVKIAVAADKLSNEDLAYVEKITGFSLEKFKANDGSSSRGTDSRDSERERRRRLKEQEEKERDRRLKERELYELKKARELLDEERSRLQEKELPPIKPPRPTSTTSVPNTTSVPPAESSNNNNSSNKYDWFEFFLNCGVDVSNCQRYTINFDREQLTEDMMPDINNSMLRTLGLREGDIVRVMKHLDKKFGRENIASIPTNATGNMFSQPDGSLNVATSPETSLPQQLLPQTTSPAQTAPSTSAETDDAWTVKPASKSESNLLSKKSEFTGSMQDLLDLQPLEPKKAAASTPEPNLKDLEPVKTGGTTVPAAPVSSAPVSSAPAPLDPFKTGGNNILPLSTGFVMMPMITGGDMLPMQRTGGFVVPQTTFGMQSQVTGGILPVQKTGNGLIPISNTGGAMMPQTTFGAAATVLPLQKTGGGLIPIATTGGAQFPQTSFNVQGQQQLPTGSILPVQKTANGLISANTGVSMPTVQRTGGTMIPQTSFGVSQQLTGGAMMTQPQNTGSAMMPQTSFNAVPQITGGAMMPQTSFNALPQVTGGAMMPLQRTGGALNTFNTGGAMIPQTSFSSQAQNTGGFRPQSQFGLTLQKTGGIAPLNQNQFTGGAMNTLSTGGVLQQQQPQTMNTFNTGGVMQELQMMTTFNTGGAMQQPQMMNTFNTDGIMQQPQMMNTFNTGGAMQQPQQQALQNQPTGFGFGNGPQQSRQANIFNATASNPFGF
- medrep = log2 median colony size normalized to plate background (PCA score) (prey YAL005C, 4 replicates): 4.576
- medrep = log2 median colony size normalized to plate background (PCA score) (prey YAL005C, 4 replicates, listed as SLA1 WT¦WT¦WT*): 5.708
- medrep = log2 median colony size normalized to plate background (PCA score) (prey YBL007C, 4 replicates): 3.858
- medrep = log2 median colony size normalized to plate background (PCA score) (prey YBL007C, 4 replicates, listed as SLA1 WT¦WT¦WT*): 4.787
- medrep = log2 median colony size normalized to plate background (PCA score) (prey YBR234C, 4 replicates): 4.193
- medrep = log2 median colony size normalized to plate background (PCA score) (prey YBR234C, 4 replicates, listed as SLA1 WT¦WT¦WT*): 5.208
- medrep = log2 median colony size normalized to plate background (PCA score) (prey YCR009C, 2 replicates): 2.175
- medrep = log2 median colony size normalized to plate background (PCA score) (prey YCR030C, 4 replicates): 2.158
- medrep = log2 median colony size normalized to plate background (PCA score) (prey YCR088W, 4 replicates): 3.971
- medrep = log2 median colony size normalized to plate background (PCA score) (prey YCR088W, 4 replicates, listed as SLA1 WT¦WT¦WT*): 4.931
- medrep = log2 median colony size normalized to plate background (PCA score) (prey YDL229W, 4 replicates): 4.158
- medrep = log2 median colony size normalized to plate background (PCA score) (prey YDL229W, 4 replicates, listed as SLA1 WT¦WT¦WT*): 5.378
- medrep = log2 median colony size normalized to plate background (PCA score) (prey YDR129C, 4 replicates): 3.756
- medrep = log2 median colony size normalized to plate background (PCA score) (prey YDR129C, 4 replicates, listed as SLA1 WT¦WT¦WT*): 4.737
- medrep = log2 median colony size normalized to plate background (PCA score) (prey YFL010C, 2 replicates): 3.147
- medrep = log2 median colony size normalized to plate background (PCA score) (prey YFR024C-A, 4 replicates): 3.943
- medrep = log2 median colony size normalized to plate background (PCA score) (prey YFR024C-A, 4 replicates, listed as SLA1 WT¦WT¦WT*): 4.815
- medrep = log2 median colony size normalized to plate background (PCA score) (prey YGL206C, 4 replicates): 3.77
- medrep = log2 median colony size normalized to plate background (PCA score) (prey YGL206C, 4 replicates, listed as SLA1 WT¦WT¦WT*): 4.526
- medrep = log2 median colony size normalized to plate background (PCA score) (prey YGR229C, 4 replicates): 2.045
- medrep = log2 median colony size normalized to plate background (PCA score) (prey YHR016C, 4 replicates): 3.008
- medrep = log2 median colony size normalized to plate background (PCA score) (prey YHR016C, 4 replicates, listed as SLA1 WT¦WT¦WT*): 3.247
- medrep = log2 median colony size normalized to plate background (PCA score) (prey YHR064C, 4 replicates): 3.59
- medrep = log2 median colony size normalized to plate background (PCA score) (prey YHR064C, 4 replicates, listed as SLA1 WT¦WT¦WT*): 4.449
- medrep = log2 median colony size normalized to plate background (PCA score) (prey YIL062C, 4 replicates): 3.558
- medrep = log2 median colony size normalized to plate background (PCA score) (prey YIL062C, 4 replicates, listed as SLA1 WT¦WT¦WT*): 4.388
- medrep = log2 median colony size normalized to plate background (PCA score) (prey YIR006C, 4 replicates): 3.754
- medrep = log2 median colony size normalized to plate background (PCA score) (prey YIR006C, 4 replicates, listed as SLA1 WT¦WT¦WT*): 4.634
- medrep = log2 median colony size normalized to plate background (PCA score) (prey YKL013C, 4 replicates): 3.269
- medrep = log2 median colony size normalized to plate background (PCA score) (prey YKL013C, 4 replicates, listed as SLA1 WT¦WT¦WT*): 3.776
- medrep = log2 median colony size normalized to plate background (PCA score) (prey YKL054C, 4 replicates): 2.47
- medrep = log2 median colony size normalized to plate background (PCA score) (prey YKL054C, 4 replicates, listed as SLA1 WT¦WT¦WT*): 3.124
- medrep = log2 median colony size normalized to plate background (PCA score) (prey YKL117W, 4 replicates): 3.846
- medrep = log2 median colony size normalized to plate background (PCA score) (prey YKL117W, 4 replicates, listed as SLA1 WT¦WT¦WT*): 4.725
- medrep = log2 median colony size normalized to plate background (PCA score) (prey YKL129C, 4 replicates): 2.117
- medrep = log2 median colony size normalized to plate background (PCA score) (prey YLR337C, 4 replicates): 3.738
- medrep = log2 median colony size normalized to plate background (PCA score) (prey YLR337C, 4 replicates, listed as SLA1 WT¦WT¦WT*): 4.734
- medrep = log2 median colony size normalized to plate background (PCA score) (prey YLR370C, 4 replicates): 3.494
- medrep = log2 median colony size normalized to plate background (PCA score) (prey YLR370C, 4 replicates, listed as SLA1 WT¦WT¦WT*): 4.461
- medrep = log2 median colony size normalized to plate background (PCA score) (prey YMR109W, 4 replicates): 2.836
- medrep = log2 median colony size normalized to plate background (PCA score) (prey YMR109W, 4 replicates, listed as SLA1 WT¦WT¦WT*): 3.116
- medrep = log2 median colony size normalized to plate background (PCA score) (prey YNL084C, 4 replicates): 3.76
- medrep = log2 median colony size normalized to plate background (PCA score) (prey YNL084C, 4 replicates, listed as SLA1 WT¦WT¦WT*): 4.641
- medrep = log2 median colony size normalized to plate background (PCA score) (prey YNL138W, 4 replicates): 2.038
- medrep = log2 median colony size normalized to plate background (PCA score) (prey YNL243W, 4 replicates): 3.418
- medrep = log2 median colony size normalized to plate background (PCA score) (prey YNL243W, 4 replicates, listed as SLA1 WT¦WT¦WT*): 4.392
- medrep = log2 median colony size normalized to plate background (PCA score) (prey YOR181W, 4 replicates): 3.933
- medrep = log2 median colony size normalized to plate background (PCA score) (prey YOR181W, 4 replicates, listed as SLA1 WT¦WT¦WT*): 4.903
